B1: NR2F2 (parent)
chain: VAHVESLQEKSQCALEEYVRSQYP

Variants of: B1
Test: protein stability index of a GFP-peptide fusion (GPS, HEK-293T) (PSI 1-6); higher = more stable
Conditions: c terminus: a fixed tail appended
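Note: lentivirally expressed fusions sorted by FACS into six bins by GFP to DsRed ratio, PSI derived from sequencing read proportions per bin multiplied by bin number.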

Protein stability index of substitutions, site by site:
R20: Y 3.26; K 4.18; D 4.71; M 3.19; P 4.16; H 3.86; I 3.36; S 3.65; W 2.56; L 2.67; N 3.14; Q 4.3; A 3.49; C 3.87; V 3.72; F 2.71; E 4.51; G 4.17; T 3.72
E16: A 3.59; R 3.65; V 3.36; M 2.89; I 3.7; P 3.74; F 2.35; G 3.21; T 3.29; S 3.37; W 2.23; N 3.63; C 3.63; Y 2.11; Q 3.68; K 3.7; H 3.16; D 3.62; L 3.3
A14: I 3.75; Q 3.57; Y 3.19; S 3.78; R 3.43; M 3.81; T 3.92; E 4.68; G 3.6; K 3.88; N 4.22; P 4.11; V 3.83; C 3.41; W 2.5; F 2.76; H 4.08; D 4.79; L 2.88
Y18: I 3.55; A 3.97; D 5.05; N 3.91; W 3.66; E 4.7; C 3.51; T 4.42; P 4.43; V 3.75; S 4.25; K 3.94; H 4.2; G 4.33; L 3.01; R 4.26; F 3.33; M 3.93
K10: Y 2.63; A 3.45; C 2.54; W 2.96; H 3.7; R 4.09; M 2.97; Q 3.83; T 3.92; N 3.98; F 2.08; G 3.81; E 4.48; L 3.07; D 4.32; I 2.58; P 3.37; V 3.49; S 3.76
E5: A 3.27; Y 2.13; N 3.38; W 2.14; Q 3.52; P 3.04; G 2.9; M 2.69; T 2.93; S 2.53; V 2.48; F 1.92; L 2.37; R 2.63; I 2.41; H 3.02; K 2.96; C 1.97; D 3.18
V4: N 4.12; S 4.11; Q 4.03; T 3.59; P 3.54; L 3.08; Y 2.59; K 3.79; M 3.24; R 4.06; W 3.28
S21: V 3.34; G 3.67; T 3.95; Y 2.89; K 3.15; R 3.13; A 3.25; L 3.46; E 3.77; F 2.56; I 3.02; D 3.77; N 3.92; P 4.04; H 3.46; C 3.38; W 2.24; M 3.33; Q 3.53
L15: Y 4.04; A 4.75; D 4.88; M 3.84; H 4.35; N 4.42; S 4.33; I 3.89; P 4.88; V 4.51; R 4.37; E 5.03; G 4.89; C 4.01; T 4.91; Q 4.73; K 4.3; F 3.48; W 2.33
C13: V 4.05; Q 4.55; S 4.24; P 3.92; G 4; R 4.23; M 3.98; L 3.92; D 4.36; I 3.45; N 4.47; Y 3.83; T 4.28; F 3.58; E 4.91; H 4.4; W 3.54; K 3.99; A 4.7
E9: T 3.11; Q 2.62; R 2.53; N 3.05; I 1.83; P 2.68; M 2.2; G 2.89; D 3.59; F 2.13; A 2.55; V 2.72; L 2.64; Y 2.77; W 2.27; S 2.73; K 3.11; H 3.23; C 1.85
V19: Q 4.03; P 4.73; R 3.85; W 3.06; E 5.1; I 3.63; A 3.49; G 3.39; M 3.65; D 4.26; K 4.04; Y 3.56; S 4.08; T 3.67; C 3.7; H 4.24; N 4.13; F 3.34; L 3.17
S6: R 3.67; V 3.33; L 3.22; E 4.33; F 2.71; K 4.12; T 3.55; D 3.86; C 3.48; Y 2.98; Q 3.69; H 3.26; I 3.07; A 4.04; P 2.94; W 2.77; M 3.07; G 3.24; N 3.53
S11: I 2.8; L 3.2; H 3.59; M 2.54; K 3.41; W 2.61; T 3.53; C 3.37; V 2.48; A 4.05; P 4.04; D 4.5; Q 2.97; F 1.78; G 4.07; R 3.12; E 4.36; Y 2.36; N 3.88
Q22: A 3.63
E17: H 2.76; R 3.62; C 2.89; A 2.12; W 2.11; L 2.49; K 3.81; Q 3.27; S 3.36; Y 2.11; M 2.58; V 2.26; P 3.5; D 3.44; T 3.62; N 3.08; F 2.34; G 3.45; I 2.3
Q8: Y 2.73; I 2.83; V 3.02; M 2.98; R 3.68; H 3.49; A 3.03; K 3.88; F 2.48; S 3.48; D 3.71; W 2.27; E 3.99; P 3.45; N 3.75; C 2.99; G 3.56; T 3.53; L 2.89
L7: F 3.27; P 4.43; R 3.89; A 3.92; K 3.98; I 3.82; E 4.77; V 4.05; N 4.68; S 4.29; Y 3.45; H 3.71; G 3.55; W 3.03; T 4.13; C 3.81; Q 4.08; D 4.29; M 3.95
Q12: A 3.33; W 2.64; G 3.7; Y 2.55; D 4.32; L 2.68; C 2.45; R 3.77; S 2.77; P 3.12; K 3.76; F 2.86; N 3.54; H 2.88; V 2.83; E 4.6; T 2.88; M 2.99; I 2.49
